Experimental data from publication PMC4479991.

Legend:
[1] = biological target: T1, zif268_GST (uncleaved fusion) (UniProt P08046 333-421); test: EMSA; 1:300 DNA:protein; EMSA: binding on ice, at least 1 h, native PAGE 8% (oligos) or 3.5% (1 kb), salt up to 1 M KCl; nanopore: 1 M KCl, 30 min incubation at 200:1 protein:DNA; pH no
[2] = biological target: T2, zif268 (EGR1 DNA-binding domain), cleaved (UniProt P08046 333-421); test: as above
[3] = biological target: T1, zif268_GST (uncleaved fusion); test: EMSA; EMSA: binding on ice, at least 1 h, native PAGE 8% (oligos) or 3.5% (1 kb), salt up to 1 M KCl; nanopore: 1 M KCl, 30 min incubation at 200:1 protein:DNA; pH no
[4] = biological target: T2, zif268 (EGR1 DNA-binding domain), …; test: as above
[5] = biological target: T2, zif268 (EGR1 DNA-binding domain), …; test: EMSA; up to 1 M KCl; binding saturates at about 1:200 DNA:protein; EMSA: binding on ice, at least 1 h, native PAGE 8% (oligos) or 3.5% (1 kb), salt up to 1 M KCl; nanopore: 1 M KCl, 30 min incubation at 200:1 protein:DNA; pH no

B1: (+) 50 bp oligo, 2 sites separated by 6 bp (dsDNA)
DNA 1: CAGGCGTGGGCGCTGCAGGCGTGGGCGCC
DNA 2: TCGAGGCGCCCACGCCTGCAGCGCCCACGCCTGGTAC
B1: binds [1]; binds [2].

B2: (-) 50 bp oligo, no site (dsDNA)
DNA 1: CAGTATGCAAATGACTGCAGTATGCAAATGACC
DNA 2: TCGAGGTCATTTGCATACTGCAGTCATTTGCATACTGGTAC
B2: no binding [3]; no binding [4].

B3: Atto-647 50 bp oligo, 1 site (dsDNA)
DNA 1: AGTCTGTTACGCTGGCCTCTGCGTGGGCGAATTCGCATGCGCAACCCCAC
DNA 2: GTGGGGTTGCGCATGCGAATTCGCCCACGCAGAGGCCAGCGTAACAGACT
B3: binds [5].
